Results: patent EP0866075B1, “Method to treat microbial infections by uncoupling of phosphotransferase system and appropriate agents therefor” (Arpida AG,, priority 1997, dated 1998)

Molecular target: enzyme I (phosphoenolpyruvate-protein phosphotransferase, EC 2.7.3.9) of the E. coli phosphotransferase system (E. coli) (UniProt P08839)
Experiment: cell-based or functional assay

HPr protein (phosphorylcarrier protein HPr) (from UniProt P0AA04 1-85)
uncoupling P;Ipeptide/h: 2.7 Pi/peptide/h
